# Assay results as given in patent US6586658.
# Biological target: FaoA-GUS fusion protein (UniProt P05804)
# Sequence of UniProt P05804 (P05804 whole entry, looked up, the tested form may be a part): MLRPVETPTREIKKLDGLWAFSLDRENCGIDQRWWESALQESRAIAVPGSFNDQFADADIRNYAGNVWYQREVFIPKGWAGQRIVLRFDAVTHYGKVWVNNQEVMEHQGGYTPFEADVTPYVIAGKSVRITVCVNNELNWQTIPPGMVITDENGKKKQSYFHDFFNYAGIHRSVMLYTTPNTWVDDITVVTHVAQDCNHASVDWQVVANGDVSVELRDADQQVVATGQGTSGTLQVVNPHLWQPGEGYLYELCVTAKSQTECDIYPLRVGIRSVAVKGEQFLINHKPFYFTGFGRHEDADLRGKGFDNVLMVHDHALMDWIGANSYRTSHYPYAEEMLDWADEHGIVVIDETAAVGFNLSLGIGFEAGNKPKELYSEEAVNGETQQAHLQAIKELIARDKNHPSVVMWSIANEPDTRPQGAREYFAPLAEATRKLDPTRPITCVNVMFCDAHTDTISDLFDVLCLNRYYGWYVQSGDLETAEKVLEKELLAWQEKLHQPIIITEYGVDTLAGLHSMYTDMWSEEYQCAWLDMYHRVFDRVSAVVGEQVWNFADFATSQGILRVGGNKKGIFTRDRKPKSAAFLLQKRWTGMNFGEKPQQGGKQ
substance,measurement,value
FaoB polypeptide of the Pseudomonas putida FaoAB fatty acid oxidation multienzyme complex,"GUS activity (pmol MU/min), OS fraction of flax zygotic embryos, pmfG138:pmf224 (1:1)",386 pmol MU/min
same,"GUS activity (pmol MU/min), OS fraction of flax zygotic embryos, pmfG138:pmf224 (1:3)",440 pmol MU/min
same,"GUS activity (pmol MU/min), SN fraction of flax zygotic embryos, pmfG138:pmf224 (1:1)",175 pmol MU/min
same,"GUS activity (pmol MU/min), SN fraction of flax zygotic embryos, pmfG138:pmf224 (1:3)",214 pmol MU/min
same,"GUS activity (pmol MU/min), total homogenate of B. napus microspore embryos co-bombarded with pmfG138:pmf224",85 pmol MU/min
same,"GUS activity in a GUS-FaoA fusion, transient expression in embryos",> 2 fold
same,"GUS specific activity, Ara-FaoA-GUS:pha-FaoB against Ara-FaoA-GUS, background subtracted, B. napus microspore embryos",2 fold
same,"Specific activity (activity/mg prt), OS fraction of flax zygotic embryos, pmfG138:pmf224 (1:1) (activity/mg prt)",52.8
same,"Specific activity (activity/mg prt), OS fraction of flax zygotic embryos, pmfG138:pmf224 (1:3) (activity/mg prt)",79
same,"Specific activity (activity/mg prt), SN fraction of flax zygotic embryos, pmfG138:pmf224 (1:1) (activity/mg prt)",23.9
same,"Specific activity (activity/mg prt), SN fraction of flax zygotic embryos, pmfG138:pmf224 (1:3) (activity/mg prt)",38.4
same,"Specific activity (activity/mg prt), total homogenate of B. napus microspore embryos co-bombarded with pmfG138:pmf224 (activity/mg prt)",29.1
